In patent publication US20210032312A1 (Janssen / Centocor, published 2021):
Residue numbers refer to the chain shown, from its start.

B1: P283FR9P1366_B7 (designed binder)
chain: LPAPKNLVVSRVTEDSARLSWTAPDAAFDSFWITYPEWPVNGEAIVLTVPGSERSYDLTGLKPGTEYWVVIWGVKGGVESPPLSAIFTT
notes: FN3 domain
B2: P283FR9P1366_D6 (designed binder)
chain: LPAPKNLVVSRVTEDSARLSWTAPDAAFDSFNIFYPELVFPGEAIVLTVPGSERSYDLTGLKPGTEYWVNISGVKGGEHSWPLSAIFTT
notes: FN3 domain
B3: P283FR9P1366_C2 (designed binder)
chain: B2 chain with N32K, F34S, L38W, V39P, F40P, P41E, W68A, N70F, S72W, G73C
notes: FN3 domain
B4: P283FR9P1366_H10 (designed binder)
chain: B1 chain with W32N, T34A, V40P, N41E, W68F, W72Y, V78H, E79L, P81D
notes: FN3 domain
B5: P283FR9P1366_F8 (designed binder)
chain: LPAPKNLVVSRVTEDSARLSWTAPDAAFDSFAIAYPEIAKWGEAIVLTVPGSERSYDLTGLKPGTEYFVIIYGVKGGVHSFPLSAIFTT
notes: FN3 domain
B6: P283FR9P1366_H6 (designed binder)
chain: B1 chain with W32D, T34A, N41T, V70I, W72F, V78E, E79R, P81W
notes: FN3 domain
B7: P283FR9P1366_C6 (designed binder)
chain: B1 chain with W32S, T34A, N41Y, W68F, W72Y, V78N, E79Y, P81D
notes: FN3 domain
B8: P283FR9P1366_H8 (designed binder)
chain: B1 chain with W32Y, T34S, V40G, N41S, W68A, V70F, G73C, V78W, E79L, P81D
notes: FN3 domain
B9: P283FR9P1366_D7 (designed binder)
chain: B1 chain with W32S, T34A, W38L, N41K, W68F, V78T, E79Y, P81G
notes: FN3 domain
B10: P283FR9P1366_F5 (designed binder)
chain: B1 chain with W32D, T34G, V40I, N41K, V70I, V78D, E79R, P81E
notes: FN3 domain
B11: P283FR9P1366_F9 (designed binder)
chain: B2 chain with N32H, V39P, F40I, P41A, E78Y, H79E
notes: FN3 domain
B12: P283FR9P1366_G1 (designed binder)
chain: B1 chain with W32Y, T34S, W38L, N41E, V70I, V78A, E79T, P81E
notes: FN3 domain
B13: P283FR9P1366_H7 (designed binder)
chain: B5 chain with A32Q, I38Y, A39P, K40A, W41L, Y72A, V78I, H79Q, F81W
notes: FN3 domain
B14: P283FR9P1366_C3 (designed binder)
chain: B5 chain with A32K, I38W, A39P, K40D, W41G, V78I, H79L, F81P
notes: FN3 domain
B15: P283FR9P1366_D8 (designed binder)
chain: B5 chain with A32E, A39P, K40I, W41A, V78D, H79W, F81D
notes: FN3 domain
B16: P283FR9P1366_D12 (designed binder)
chain: B1 chain with W32D, T34A, V40L, N41G, V70I, W72L, V78D, E79Q, P81W
notes: FN3 domain
B17: P283GR7P1367_A11 (designed binder)
chain: B5 chain with A32D, I38W, A39P, K40T, W41D, V78S, H79Y, F81E
notes: FN3 domain
B18: P283FR9P1366_H3 (designed binder)
chain: B1 chain with W32A, T34A, V40I, N41K, W72Y, E79F, P81E
notes: FN3 domain
B19: P283FR9P1366_G5 (designed binder)
chain: B5 chain with A32Q, I38Y, A39P, K40A, W41L, Y72I, V78D, H79E
notes: FN3 domain
B20: P283FR9P1366_E11 (designed binder)
chain: B1 chain with W32D, T34A, N41P, V70I, W72K, V78N, E79I, P81W
notes: FN3 domain
B21: P283FR9P1366_H9 (designed binder)
chain: B1 chain with W32E, T34A, E79N, P81Y
notes: FN3 domain
B22: P283FR9P1366_G8 (designed binder)
chain: B5 chain with A32D, I38L, A39P, K40I, W41G, I70V, V78I, F81A
notes: FN3 domain
B23: P283FR9P1366_C4 (designed binder)
chain: B2 chain with F34A, L38W, V39P, F40V, P41R, N70I, S72I, H79D
notes: FN3 domain

What follows are binders tested against T1, human CD8A-Fc (in house) (human, UniProt P01732 22-182, limits assumed) (assay: SPR (ProteOn), captured hCD8A-Fc).
T1 construct: captured by goat anti-human Fc on the ProteOn chip; also called hCD8A-Fc; recombinant human CD8 alpha; not shown: linker/tag and Fc of human IgG1
T1 sequence (P01732 22-182 limits assumed): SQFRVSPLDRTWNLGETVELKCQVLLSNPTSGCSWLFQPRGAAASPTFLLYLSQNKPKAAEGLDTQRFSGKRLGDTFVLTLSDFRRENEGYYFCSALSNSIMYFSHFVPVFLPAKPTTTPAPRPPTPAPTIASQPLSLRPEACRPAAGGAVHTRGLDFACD

Point of comparison: B17, koff 0.000635 s⁻¹. Against it:
- B1 — 1.8-fold higher, 0.00115 s⁻¹
- B2 — within 1.5-fold, 0.000509 s⁻¹
- B3 — within 1.5-fold, 0.000491 s⁻¹
- B4 — within 1.5-fold, 0.00063 s⁻¹
- B5 — 6.3-fold higher, 0.00403 s⁻¹
- B6 — 3.1-fold lower, 0.000205 s⁻¹
- B7 — 2.3-fold higher, 0.00143 s⁻¹
- B8 — 3.6-fold lower, 0.000175 s⁻¹
- B9 — 1.8-fold lower, 0.000354 s⁻¹
- B10 — 1.6-fold higher, 0.00104 s⁻¹
- B11 — within 1.5-fold, 0.000494 s⁻¹
- B12 — within 1.5-fold, 0.000872 s⁻¹
- B13 — 2.8-fold higher, 0.00177 s⁻¹
- B14 — 3.3-fold higher, 0.00207 s⁻¹
- B15 — 2.1-fold higher, 0.00134 s⁻¹
- B16 — 2.8-fold higher, 0.00176 s⁻¹
- B18 — 1.9-fold higher, 0.00121 s⁻¹
- B19 — within 1.5-fold, 0.000705 s⁻¹
- B20 — 2.2-fold higher, 0.00141 s⁻¹
- B21 — 3.1-fold higher, 0.00198 s⁻¹
- B22 — 1.7-fold higher, 0.00108 s⁻¹
- B23 — within 1.5-fold, 0.000536 s⁻¹

Each binder was assayed against T2, cynomolgus monkey CD8 alpha on primary cynomolgus CD8+ T cells (cynomolgus monkey, UniProt P01732 23-235 (human entry)) (assay: flow cytometry, cyno CD8+ T cells).
T2 construct: also called Cyno CD8alpha; cyno CD8A
T2 sequence (P01732 other isoform, or with tags, fused parts or gaps limits assumed): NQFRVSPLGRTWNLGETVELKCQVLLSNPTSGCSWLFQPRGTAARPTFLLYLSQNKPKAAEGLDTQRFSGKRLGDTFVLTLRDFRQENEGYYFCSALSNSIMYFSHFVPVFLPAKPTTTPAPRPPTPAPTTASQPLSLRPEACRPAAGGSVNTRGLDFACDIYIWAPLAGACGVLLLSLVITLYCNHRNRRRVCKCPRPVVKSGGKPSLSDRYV
Procedure: (§1) Binding of the 190 ELISA hits to human and cynomologous monkey primary CD8 T cells was assessed by flow cytometry. The FN3 domain molecules were diluted to 2 μM and 0.2 μM in PBS and incubated with human or cynomologous monkey CD8+ T cells in 96-well format. After 1 hour at 4 C, the cells were washed once with PBS and then resuspended with an anti-FN3 domain antibody (PAB25) solution. Following this incubation, the cells were washed twice with PBS and a PE conjugated secondary antibody and a viability dye were added. Finally, cells were washed and resuspended in PBS for flow cytometric analysis using a BD Canto Instrument. Cells were gating on live cells and median fluorescence intensity of the bound Centyrins (PE channel) was calculated using Cytobank software.

Point of comparison: B19, “Cyno T-cell Binding 0.2 uM (MFI)” value 369 MFI. Against it:
- B1 — higher, 4670 MFI
- B2 — higher, 10400 MFI
- B3 — higher, 19300 MFI
- B4 — higher, 13900 MFI
- B5 — higher, 2270 MFI
- B6 — higher, 19000 MFI
- B7 — higher, 1680 MFI
- B8 — higher, 17100 MFI
- B9 — higher, 2580 MFI
- B10 — higher, 4700 MFI
- B11 — higher, 24600 MFI
- B12 — higher, 4980 MFI
- B13 — higher, 1240 MFI
- B14 — higher, 1040 MFI
- B15 — higher, 2300 MFI
- B16 — higher, 8140 MFI
- B17 — higher, 5670 MFI
- B18 — higher, 3170 MFI
- B20 — higher, 1470 MFI
- B21 — higher, 2880 MFI
- B22 — higher, 3130 MFI
- B23 — higher, 10200 MFI

Point of comparison: B11, “Cyno T-cell Binding 2 uM (MFI)” value 84300 MFI. Against it:
- B1 — lower, 51200 MFI
- B2 — lower, 79600 MFI
- B3 — higher, 89200 MFI
- B4 — lower, 75200 MFI
- B5 — lower, 27000 MFI
- B6 — lower, 81500 MFI
- B7 — lower, 26200 MFI
- B8 — lower, 61300 MFI
- B9 — lower, 41400 MFI
- B10 — lower, 46400 MFI
- B12 — lower, 39800 MFI
- B13 — lower, 24400 MFI
- B14 — lower, 4630 MFI
- B15 — lower, 28200 MFI
- B16 — higher, 87600 MFI
- B17 — lower, 66700 MFI
- B18 — lower, 40800 MFI
- B19 — lower, 36400 MFI
- B20 — lower, 14200 MFI
- B21 — lower, 36500 MFI
- B22 — lower, 37100 MFI
- B23 — lower, 63400 MFI

What follows are binders tested against T3, human CD8 alpha (CD8A) on primary human CD8+ T cells (human, UniProt P01732 22-235) (assay: flow cytometry, human CD8+ T cells).
T3 construct: whole, on cells; also called hCD8A
T3 sequence (P01732 22-235): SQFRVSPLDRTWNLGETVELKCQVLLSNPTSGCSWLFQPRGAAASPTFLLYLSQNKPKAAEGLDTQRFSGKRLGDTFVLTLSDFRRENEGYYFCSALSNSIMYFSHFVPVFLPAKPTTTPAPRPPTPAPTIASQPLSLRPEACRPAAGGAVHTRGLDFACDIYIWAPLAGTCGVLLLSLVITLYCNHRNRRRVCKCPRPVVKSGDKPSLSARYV
Procedure: as §1

Point of comparison: B21, “Human T-cell Binding 0.2 uM (MFI)” value 693 MFI. Against it:
- B1 — higher, 899 MFI
- B2 — higher, 4550 MFI
- B3 — higher, 4320 MFI
- B4 — higher, 2410 MFI
- B5 — lower, 369 MFI
- B6 — higher, 7130 MFI
- B7 — lower, 483 MFI
- B8 — higher, 4540 MFI
- B9 — lower, 566 MFI
- B10 — higher, 720 MFI
- B11 — higher, 6300 MFI
- B12 — lower, 650 MFI
- B13 — lower, 567 MFI
- B14 — lower, 407 MFI
- B15 — lower, 413 MFI
- B16 — higher, 1530 MFI
- B17 — higher, 1030 MFI
- B18 — lower, 632 MFI
- B19 — lower, 261 MFI
- B20 — lower, 567 MFI
- B22 — lower, 574 MFI
- B23 — higher, 3750 MFI

Point of comparison: B7, “Human T-cell Binding 2 uM (MFI)” value 4540 MFI. Against it:
- B1 — higher, 11400 MFI
- B2 — higher, 32900 MFI
- B3 — higher, 41000 MFI
- B4 — higher, 25000 MFI
- B5 — lower, 3970 MFI
- B6 — higher, 43900 MFI
- B8 — higher, 24900 MFI
- B9 — higher, 7520 MFI
- B10 — higher, 6880 MFI
- B11 — higher, 33600 MFI
- B12 — lower, 3600 MFI
- B13 — higher, 13800 MFI
- B14 — lower, 1820 MFI
- B15 — lower, 3390 MFI
- B16 — higher, 27800 MFI
- B17 — higher, 11300 MFI
- B18 — higher, 7670 MFI
- B19 — higher, 8450 MFI
- B20 — higher, 4590 MFI
- B21 — higher, 8570 MFI
- B22 — higher, 6860 MFI
- B23 — higher, 33800 MFI
